Results published in patent US20160168251A1 (MorphoSys, published 2016).
Where a chain is given by its changes, count along the chain named.

Tests used:
[1] = biological target: T1, human NPRA on HEK293 cells bound to ANP (human, UniProt P01160 124-151); assay: cell-based or functional assay
T1 sequence: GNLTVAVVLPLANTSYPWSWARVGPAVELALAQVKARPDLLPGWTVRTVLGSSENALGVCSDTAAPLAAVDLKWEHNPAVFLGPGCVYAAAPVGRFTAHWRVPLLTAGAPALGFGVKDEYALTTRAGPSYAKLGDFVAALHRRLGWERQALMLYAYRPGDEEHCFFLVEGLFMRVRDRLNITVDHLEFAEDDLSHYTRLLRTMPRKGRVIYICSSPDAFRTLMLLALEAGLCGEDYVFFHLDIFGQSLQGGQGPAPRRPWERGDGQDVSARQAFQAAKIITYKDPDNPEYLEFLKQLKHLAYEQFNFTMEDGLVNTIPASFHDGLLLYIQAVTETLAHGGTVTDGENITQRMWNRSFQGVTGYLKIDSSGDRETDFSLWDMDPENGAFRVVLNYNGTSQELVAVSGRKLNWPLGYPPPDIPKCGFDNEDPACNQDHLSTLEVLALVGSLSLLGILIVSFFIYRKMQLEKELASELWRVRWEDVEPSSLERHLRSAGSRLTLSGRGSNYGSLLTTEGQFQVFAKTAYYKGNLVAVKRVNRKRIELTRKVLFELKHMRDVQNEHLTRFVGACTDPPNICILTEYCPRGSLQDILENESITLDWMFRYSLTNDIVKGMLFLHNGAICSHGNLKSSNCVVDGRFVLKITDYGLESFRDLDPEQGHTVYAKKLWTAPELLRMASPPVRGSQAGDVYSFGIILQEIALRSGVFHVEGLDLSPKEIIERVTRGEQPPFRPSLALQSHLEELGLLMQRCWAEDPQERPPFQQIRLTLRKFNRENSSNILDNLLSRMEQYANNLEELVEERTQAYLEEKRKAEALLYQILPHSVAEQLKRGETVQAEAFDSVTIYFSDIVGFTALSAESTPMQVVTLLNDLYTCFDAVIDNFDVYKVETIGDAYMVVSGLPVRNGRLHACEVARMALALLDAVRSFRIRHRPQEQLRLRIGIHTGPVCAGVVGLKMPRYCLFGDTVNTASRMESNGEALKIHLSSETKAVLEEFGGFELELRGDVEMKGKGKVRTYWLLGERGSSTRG
T1 sequence (peptide): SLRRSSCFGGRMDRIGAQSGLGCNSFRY

[2] = biological target: T2, NPRA-Fc fusion protein bound to ANP (human, UniProt P01160 124-151); assay: SPR (Biacore 3000), NPRA-Fc amine-coupled on CM5, analyte with 100 nM human ANP
T2 construct: mature; Receptor-ligand complex; 'human ANP' is stated for Biacore, plain 'ANP' for ELISA and HXMS; also called NPRA-Fc+ANP

[3] = biological target: T1, human NPRA on HEK293 cells bound to ANP; assay: FACS, HEK NPRA cells with ANP
[4] = biological target: T1, human NPRA on HEK293 cells bound to ANP; assay: cell-based or functional assay; remark: listed apart in the source
[5] = biological target: T3, human NPRC on HEK293 cells, without added ligand (human, UniProt P17342 27-541); assay: FACS, HEK NPRC cells without ligand
T3 construct: whole, on cells; also called HEK NPRC cells; natriuretic peptide receptor C
T3 sequence (looked up): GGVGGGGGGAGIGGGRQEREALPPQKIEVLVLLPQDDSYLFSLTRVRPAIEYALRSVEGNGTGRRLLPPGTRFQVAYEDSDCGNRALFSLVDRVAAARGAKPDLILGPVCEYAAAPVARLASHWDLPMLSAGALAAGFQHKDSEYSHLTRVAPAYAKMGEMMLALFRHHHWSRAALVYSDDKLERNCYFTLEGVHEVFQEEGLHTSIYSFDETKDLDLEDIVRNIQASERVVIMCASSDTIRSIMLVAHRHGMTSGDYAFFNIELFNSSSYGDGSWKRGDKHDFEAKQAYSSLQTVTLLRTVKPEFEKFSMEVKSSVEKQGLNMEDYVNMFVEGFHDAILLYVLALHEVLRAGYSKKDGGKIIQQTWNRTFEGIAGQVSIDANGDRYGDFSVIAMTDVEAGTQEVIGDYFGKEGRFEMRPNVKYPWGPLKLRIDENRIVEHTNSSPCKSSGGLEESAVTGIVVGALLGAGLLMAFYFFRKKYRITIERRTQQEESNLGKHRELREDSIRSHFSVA
Method: (§1) HEK NPRA cells are detached with Accutase (PAA Laboratories GmbH, Cat. No. L11-007, Austria), harvested by centrifugation (900 rpm, 4 minutes) and resuspended in FACS buffer (PBS/3% FCS/0.02% NaN3) to a final concentration of 10⁶ cells/ml. 100 μl of the cell suspension is transferred to each well of a 96 round bottom plate (TC Microwell 96U, Nunc). […] Cells are washed in 150 μl of FACS buffer, pelleted and resuspended in 50 μl of the solution containing the primary antibody comprising a BEL extract of Fabs, a diluted BEL extract or purified antibody diluted in FACS buffer and incubated on ice for 30 min. Cells are washed again in FACS buffer and resuspended in 50 μl of FACS buffer containing the secondary antibody (R-Phycoerythrin-conjugated Affipure F(ab′)₂ Fragment Goat Anti-Human IgG, Dianova) and incubated on ice for 45 min. Cells are washed twice with FACS buffer and resuspended in 200 μl of FACS buffer for analysis in the FACS Array (BD Biosciences).

[6] = biological target: T4, human NPRA on HEK293 cells, without added ligand (human, UniProt P16066 33-1061); assay: FACS, HEK NPRA cells without ligand
T4 construct: a signal peptide is not delimited; also called HEK NPRA cells; HEK hNPRA cells
T4 sequence: T1 sequence

[7] = biological target: T5, human NPRB on HEK293 cells, without added ligand (human, UniProt P20594 23-1047); assay: FACS, HEK NPRB cells without ligand
T5 construct: whole, on cells; also called HEK NPRB cells; natriuretic peptide receptor B
T5 sequence (looked up): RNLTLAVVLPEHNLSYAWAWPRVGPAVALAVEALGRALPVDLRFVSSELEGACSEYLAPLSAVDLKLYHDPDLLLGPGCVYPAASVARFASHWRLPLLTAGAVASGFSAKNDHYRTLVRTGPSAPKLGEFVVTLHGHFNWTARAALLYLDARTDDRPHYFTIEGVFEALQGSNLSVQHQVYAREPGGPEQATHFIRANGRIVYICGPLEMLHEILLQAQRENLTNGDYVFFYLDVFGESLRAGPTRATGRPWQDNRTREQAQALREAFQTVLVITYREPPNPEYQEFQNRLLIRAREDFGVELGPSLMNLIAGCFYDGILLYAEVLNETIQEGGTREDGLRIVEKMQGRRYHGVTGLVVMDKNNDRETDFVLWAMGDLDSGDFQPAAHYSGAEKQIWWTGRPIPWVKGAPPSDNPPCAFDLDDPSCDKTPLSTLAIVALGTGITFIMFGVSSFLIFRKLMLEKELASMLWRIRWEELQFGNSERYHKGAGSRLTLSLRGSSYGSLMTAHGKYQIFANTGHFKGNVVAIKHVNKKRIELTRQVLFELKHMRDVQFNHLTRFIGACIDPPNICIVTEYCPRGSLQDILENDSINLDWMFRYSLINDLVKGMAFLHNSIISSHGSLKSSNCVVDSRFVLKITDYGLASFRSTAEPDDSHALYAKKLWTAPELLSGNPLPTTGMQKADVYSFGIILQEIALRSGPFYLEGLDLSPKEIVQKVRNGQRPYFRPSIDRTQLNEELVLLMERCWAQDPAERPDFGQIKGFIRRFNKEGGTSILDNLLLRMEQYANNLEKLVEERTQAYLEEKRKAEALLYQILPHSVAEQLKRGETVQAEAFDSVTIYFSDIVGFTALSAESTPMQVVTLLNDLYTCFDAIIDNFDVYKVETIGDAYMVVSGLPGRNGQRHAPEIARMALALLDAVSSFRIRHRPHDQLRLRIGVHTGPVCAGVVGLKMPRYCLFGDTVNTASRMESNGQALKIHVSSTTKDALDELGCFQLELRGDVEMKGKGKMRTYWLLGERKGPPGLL
Method: as §1

[8] = biological target: T6, human NPRC on HEK293 cells in the presence of ANP (human, UniProt P17342 27-541; P01160 124-151); assay: FACS, HEK NPRC cells with 100 nM ANP
T6 construct: whole, on cells;mature; also called HEK NPRC cells + 100 nM ANP
T6 sequence (looked up): T3 sequence (looked up)
T6 sequence (peptide, looked up): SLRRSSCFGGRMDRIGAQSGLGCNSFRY
Method: as §1

[9] = biological target: T7, human NPRC on HEK293 cells in the presence of BNP (human, UniProt P17342 27-541; P16860 103-134); assay: FACS, HEK NPRC cells with 100 nM BNP
T7 construct: whole, on cells;mature; also called HEK NPRC cells + 100 nM BNP
T7 sequence (looked up): T3 sequence (looked up)
T7 sequence (peptide, looked up): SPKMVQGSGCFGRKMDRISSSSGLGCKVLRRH
Method: as §1

[10] = biological target: T8, human NPRB on HEK293 cells in the presence of CNP (human, UniProt P20594 23-1047; P23582 105-126); assay: FACS, HEK NPRB cells with 100 nM CNP
T8 construct: whole, on cells;mature; also called HEK NPRB cells + 100 nM CNP
T8 sequence (P23582 105-126 limits assumed, one chain of several): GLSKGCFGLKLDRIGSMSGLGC
Method: as §1

[11] = biological target: T1, human NPRA on HEK293 cells bound to ANP; assay: FACS, HEK NPRA cells with 100 nM ANP, IgG4_Pro format
[12] = biological target: T1, human NPRA on HEK293 cells bound to ANP; assay: FACS, IgG4_Pro on HEK NPRA cells in the presence of 100 nM ANP
Method: as §1

B1: 5502 Fab (Fab, V domains shown)
VH: QVQLQQSGPGLVKPSQTLSLTCAISGDSVSSRSASWSWIRQSPGRGLEWLGRIYYRSKWYNDYAVSVKSRITINPDTSKNQFSLQLNSVTPEDTAVYYCARMDVPSFRYFDVWGQGTLVTVSS
VL: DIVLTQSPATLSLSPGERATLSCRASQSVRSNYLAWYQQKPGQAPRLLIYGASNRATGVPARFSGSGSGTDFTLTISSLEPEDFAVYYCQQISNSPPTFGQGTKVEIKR
EC50 of ANP, cGMP production in HEK NPRA cells, with 400 nM Fab [1]: 0.3 nM
factor by which the potency of ANP is enhanced (cGMP, 400 nM Fab) [1]: 10 fold

B2: 5591 Fab (Fab, V domains shown)
VH: B1 VH with I53T, K58H, N61Y, D62E, V65Q
VL: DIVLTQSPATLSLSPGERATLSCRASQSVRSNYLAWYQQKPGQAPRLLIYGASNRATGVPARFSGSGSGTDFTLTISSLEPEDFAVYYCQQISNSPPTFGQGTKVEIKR
Kd [2]: 1.16 nM
koff [2]: 0.00103 s⁻¹
kon [2]: 884000 M⁻¹ s⁻¹

B3: 5064 IgG1 (antibody, V domains shown)
VH: B1 VH
VL: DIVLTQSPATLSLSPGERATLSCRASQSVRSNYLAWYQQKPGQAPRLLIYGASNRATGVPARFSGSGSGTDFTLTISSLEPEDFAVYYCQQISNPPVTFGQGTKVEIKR
notes: Human IgG1 format
EC50 (read off the curve) [3]: ~0.5 nM

B4: 5504 Fab (Fab, V domains shown)
VH: B1 VH
VL: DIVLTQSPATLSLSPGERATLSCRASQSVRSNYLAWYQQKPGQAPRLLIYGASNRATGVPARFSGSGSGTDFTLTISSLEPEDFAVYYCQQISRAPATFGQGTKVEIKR
EC50 of ANP, cGMP production in HEK NPRA cells, with 400 nM Fab [1]: 0.3 nM
factor by which the potency of ANP is enhanced (cGMP, 400 nM Fab) [1]: 10 fold

B5: 5592 Fab (Fab, V domains shown)
VH: B1 VH with I53T, K58H, N61Y, D62E, V65Q
VL: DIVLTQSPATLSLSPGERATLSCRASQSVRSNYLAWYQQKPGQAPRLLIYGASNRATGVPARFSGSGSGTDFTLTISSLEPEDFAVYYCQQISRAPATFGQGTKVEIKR
Kd [2]: 0.426 nM
koff [2]: 0.000369 s⁻¹
kon [2]: 868000 M⁻¹ s⁻¹

B6: 5514 Fab (Fab, V domains shown)
VH: B1 VH
VL: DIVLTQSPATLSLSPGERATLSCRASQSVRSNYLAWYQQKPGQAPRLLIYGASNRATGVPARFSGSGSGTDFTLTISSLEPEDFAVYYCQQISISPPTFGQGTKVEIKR
EC50 of ANP, cGMP production in HEK NPRA cells, with 400 nM Fab [1]: 0.5 to 0.6 nM

B7: 5504 IgG4_Pro (antibody, V domains shown)
VH: B1 VH
VL: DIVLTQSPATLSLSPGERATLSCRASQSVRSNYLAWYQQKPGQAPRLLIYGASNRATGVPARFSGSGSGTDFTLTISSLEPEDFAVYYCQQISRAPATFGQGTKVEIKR
notes: Human IgG4_Pro
fold increase in the potency of ANP (cGMP, HEK NPRA cells, 200 nM IgG4_Pro) [1]: ≤ 10 fold
cGMP EC50 (nM), titration of the antibody on HEK NPRA cells with 200 pM ANP [4]: 1.2 nM
binding result [5]: no binding (tested: 20 nM)
binding result [6]: no binding (tested: 20 nM)
binding result [7]: no binding (tested: 20 nM)
binding result [8]: no binding (tested: 20 nM)
binding result [9]: no binding (tested: 20 nM)
binding result [10]: no binding (tested: 20 nM)
EC50 (read off the curve) [11]: ~0.5 nM
EC50 [12]: 0.56 nM

B8: 5507 Fab (Fab, V domains shown)
VH: B1 VH
VL: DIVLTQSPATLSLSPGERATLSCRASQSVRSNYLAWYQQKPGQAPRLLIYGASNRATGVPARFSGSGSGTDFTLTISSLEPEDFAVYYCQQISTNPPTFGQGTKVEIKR
EC50 of ANP, cGMP production in HEK NPRA cells, with 400 nM Fab [1]: 0.5 to 0.6 nM

B9: 5513 Fab (Fab, V domains shown)
VH: B1 VH
VL: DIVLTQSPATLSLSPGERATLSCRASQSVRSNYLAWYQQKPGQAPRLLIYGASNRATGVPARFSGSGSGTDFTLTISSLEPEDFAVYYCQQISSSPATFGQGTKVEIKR
EC50 of ANP, cGMP production in HEK NPRA cells, with 400 nM Fab [1]: 0.5 to 0.6 nM
